According to patent publication US20120077751:

Legend:
[1] = tested on: GST back bone (GST) [GST: P08515]
[2] = target: GST fusion protein of the GluR1 carboxyl tail (GST-GluR1CT) (UniProt P19490)
[3] = target: GST fusion protein of the GluR2 carboxyl tail (GST-GluR2CT) (UniProt P19491)
[4] = tested on: T1, GST-GluR23A (GST-AKEGANVAG)
T1 sequence: AKEGANVAG

[5] = tested on: GST-GluR23Y (GST-YKEGYNVYG) [GST: P08515]

Chain of GST fusion protein of the GluR1 carboxyl tail (GST-GluR1CT) (P19490 827-907): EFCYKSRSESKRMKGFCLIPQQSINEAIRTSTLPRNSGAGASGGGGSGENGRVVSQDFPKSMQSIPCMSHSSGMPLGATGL
Chain of GST fusion protein of the GluR2 carboxyl tail (GST-GluR2CT) (P19491 834-883): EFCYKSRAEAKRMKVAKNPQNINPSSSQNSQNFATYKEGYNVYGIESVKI

Substance: active recombinant pp60 c-Src
- in vitro kinase assay, anti-phosphotyrosine immunoblot [1]: GST-GluR2CT, but not GST-GluR1CT or GST alone, is specifically phosphorylated by Src kinase
- in vitro kinase assay, anti-phosphotyrosine immunoblot [2]: GST-GluR2CT, but not GST-GluR1CT or GST alone, is specifically phosphorylated by Src kinase
- in vitro kinase assay, anti-phosphotyrosine immunoblot [3]: GST-GluR2CT, but not GST-GluR1CT or GST alone, is specifically phosphorylated by Src kinase
- in vitro kinase assay, anti-phosphotyrosine immunoblot [4]: Src-mediated phosphorylation was abolished when these tyrosine residues were mutated into alanines
- in vitro kinase assay, anti-phosphotyrosine immunoblot [5]: the recombinant Src kinase phosphorylated a GST fusion protein containing the nine amino-acid stretch including all three GluR2-unique tyrosine residues
